In assay [1] the target is BbRAG1L NBD* domain (purified NBD* protein) (Branchiostoma belcheri). The assay can be described thus: SEC-MALS. For orientation: SEC sorts molecules by how far they enter the pores of the column.
For assay [2], the target named is MBP-tagged core BbRAG1L (cBbRAG1L; aa 468-1136) (Branchiostoma belcheri). Put plainly: SEC-MALS.

Turning to “BbRAG1L NBD* domain (purified NBD* protein) (domain or fragment)”, the stoichiometry N (usually the number of molecules, sites or subunits per partner or assembly) in assay [1] came out at 2. In assay [2], “MBP-tagged full length BbRAG2L (natural protein)” displayed a stoichiometry N (BbRAG2L per cBbRAG1L (2:2)) of 1.

Source of the values: article PMC6494689.
